Here are results for 2 substances from paper PMC4657049.

The experiment addresses biotinylated eLtaS protein (extracellular domain of LtaS of S. aureus) (S. aureus 8325-4) (UniProt Q2G093). The experiment can be described thus: SPR; biotinylated eLtaS immobilised on Sensor Chip SA; C3 and C3b injected at 300, 100, 30, 10 ug/ml; global kinetic fit. In general terms: SPR reads the build-up and loss of mass on a sensor chip optically.
Sequence of UniProt Q2G093 (Q2G093 whole entry, the tested form may be a part): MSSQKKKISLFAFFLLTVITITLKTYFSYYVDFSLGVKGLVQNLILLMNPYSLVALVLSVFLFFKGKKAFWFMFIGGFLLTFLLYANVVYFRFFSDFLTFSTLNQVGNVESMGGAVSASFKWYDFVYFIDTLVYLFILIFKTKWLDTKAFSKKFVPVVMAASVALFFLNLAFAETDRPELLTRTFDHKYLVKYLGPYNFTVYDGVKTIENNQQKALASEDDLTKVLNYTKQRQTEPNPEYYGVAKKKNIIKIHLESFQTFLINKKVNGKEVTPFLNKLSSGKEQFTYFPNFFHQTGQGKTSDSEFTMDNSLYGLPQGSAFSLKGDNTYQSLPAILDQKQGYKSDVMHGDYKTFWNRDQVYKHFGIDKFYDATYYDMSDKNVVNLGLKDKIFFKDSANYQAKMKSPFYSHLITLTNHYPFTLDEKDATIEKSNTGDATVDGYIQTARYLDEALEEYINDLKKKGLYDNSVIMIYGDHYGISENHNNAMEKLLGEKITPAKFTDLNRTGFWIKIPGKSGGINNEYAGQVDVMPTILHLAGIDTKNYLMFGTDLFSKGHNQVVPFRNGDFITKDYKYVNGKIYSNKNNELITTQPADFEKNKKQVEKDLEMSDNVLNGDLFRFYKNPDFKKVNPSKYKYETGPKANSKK

For “human complement C3 (from UniProt P01024 23-667; P01024 672-1663) (natural protein)”, the Kd turned out to be 0.687 nM, the dissociation rate constant (koff) turned out to be 0.00149 s⁻¹ and the kon was determined as 2.17e+06 M⁻¹ s⁻¹.
Taken in the same sequence, the figures for “human complement C3b (from UniProt P01024 23-667; P01024 749-1663) (domain or fragment)” were 0.546 nM, 0.00198 s⁻¹ and 3.63e+06 M⁻¹ s⁻¹.

A word on the Kd: it is the free concentration of one partner at which half of the binding sites on the other are occupied at equilibrium, for simple one-to-one binding. Read a high Kd as a looser complex. In general, koff refers to the first-order rate constant of dissociation. A word on the kon: it is the rate constant with which the complex forms. A lower kon goes with slow association.
